# Reference: patent US8796201B2 (The Board of Trustees of the Leland Stanford Junior …, priority 2002, dated 2014)
# B1: PEP: prolyl endopeptidase; Examples 1-2: from Flavobacterium meningosepticum (US Biological); Example 11: source not stated (protein, UniProt P27028 21-705, looked up)
# Prolyl endopeptidase: QNSNVLKYPETKKVSHTDTYFGTQVSDPYRWLEDDRAEDTKAWVQQEVKFTQDYLAQIPFRDQLKKQLMDIWNYEKISAPFKKGKYTYFSKNDGLQAQSVLYRKDAAGKTEVFLDPNKFSEKGTTSLASVSFNKKGTLVAYSISEGGSDWNKIIILDAETKKQLDETLLDVKFSGISWLGDEGFFYSSYDKPKEGSVLSGMTDKHKVYFHKLGTKQSQDELIIGGDKFPRRYIGAYVTDDQRYLVVSAANATNGNELYIKDLKNKTDFIPIITGFDSNVNVADTDGDTLYLFTDKDAPNKRLVKTTIQNPKAETWKDVIAETSEPLEINTGGGYFFATYMKDAIDQVKQYDKNGKLVRAIKLPGSGNASGFGGEKTEKDLYYSFTNYITPPTIFKYNVTTGNSEVYQKPKVKFNPENYVSEQVFYTSSDGTKIPMMISYKKGLKKDGKNPTILYSYGGFNISLQPAFSVVNAIWMENGGIYAVPNIRGGGEYGKKWHDAGTKMQKKNVFNDFIAAGEYLQKNGYTSKEYMALSGRSNGGLLVGATMTMRPDLAKVAFPGVGVLDMLRYNKFTAGAGWAYDYGTAEDSKEMFEYLKSYSPVHNVKAGTCYPSTMVITSDHDDRVVPAHSFKFGSELQAKQSCKNPILIRIETNAGHGAGRSTEQVVAENADLLSFALYEMGIKSLK
# Columns and labels:
# [1] = Double-blind crossover gluten challenge: 25 g D-xylose 5-hour urine excretion test; type: in vivo, human (Celiac Sprue patients)
# Source text: It was first established that a low-dose, short-term (5-10 g/day for 14 days) gluten oral supplement induces fat and carbohydrate malabsorption when given to asymptomatic Celiac Sprue patients on an otherwise gluten free diet. This protocol was modified to examine the effect of gluten pre-treated with pepsin, trypsin and chymotrypsin (PTC-Gluten) as compared to PTC-Gluten additionally treated with PEP (PTC-Gluten+PEP). In this study, Celiac patients maintaining a gluten-free diet ingested a supplement of 5 g/day gluten as PTC-Gluten or PTC-Gluten+PEP in an orange-lemon juice vehicle for 14 days in a double-blind crossover manner. A 6-week washout interval between individual arms of the crossover trial allowed patients to recover completely from the effects, if any, of the test material in the first arm.
# Subjects and protocols: This study was approved by the Institutional Review Board of the Palo Alto Medical Foundation in Palo Alto, Calif., and all participants in the study were counseled regarding risks and signed an informed consent document. 22 patients were recruited who were in symptomatic remission on a gluten-free diet. Two patients dropped out of the study, one near the end of the first stage and the other prior to the second stage. The 20 patients who completed the study included 7 men and […] aged 21 to 78 (mean age 49). The time since diagnosis for the 20 patients ranged from 3 months to 18 years (mean 6 years). Patients provided copies of their initial small-intestinal biopsy pathology report and laboratory reports documenting a history of at least one positive celiac antibody (gliadin, endomysial or transglutaminase) to verify a diagnosis of Celiac Sprue. They also completed an entry questionnaire inquiring about their medical history, adherence to the gluten-free diet, and current symptoms. The format of the study was a double-blinded crossover in which each patient consumed either a low daily dose of a gluten supplement (5 g; equivalent of one-half slice of bread) that was predigested with pepsin, trypsin and chymotrypsin alone (PTC-Gluten) or PTC-Gluten treated with prolyl endopeptidase (PTC-Gluten+PEP). The PEP in the latter orange juice mixture was completely inactivated through a heating process following proteolysis of the gliadin peptides. […]
# Studied variables: During each stage of the study, patients completed a daily questionnaire inquiring about symptoms and their adherence to the gluten-free diet. […] The serum anti-gliadin IgA antibodies and anti-tissue transglutaminase IgA and IgG antibodies were measured by an enzyme linked immunosorbent assay (ELISA) kit (INOVA Diagnostics, Inc., San Diego, Calif.). […] Total serum IgA levels were determined by an Integra instrument (Roche) (normal <81 mg/dl). […]
# [2] = Double-blind crossover gluten challenge: daily symptom questionnaire; type: in vivo, human (Celiac Sprue patients); details: PEP Stage, 20 patients
# Source text: Subjects and protocols: This study was approved by the Institutional Review Board of the Palo Alto Medical Foundation in Palo Alto, Calif., and all participants in the study were counseled regarding risks and signed an informed consent document. 22 patients were recruited who were in symptomatic remission on a gluten-free diet. Two patients dropped out of the study, one near the end of the first stage and the other prior to the second stage. The 20 patients who completed the study included 7 men and […] aged 21 to 78 (mean age 49). The time since diagnosis for the 20 patients ranged from 3 months to 18 years (mean 6 years). […] The serum anti-gliadin IgA antibodies and anti-tissue transglutaminase IgA and IgG antibodies were measured by an enzyme linked immunosorbent assay (ELISA) kit (INOVA Diagnostics, Inc., San Diego, Calif.). […] Total serum IgA levels were determined by an Integra instrument (Roche) (normal <81 mg/dl). […] The 25 g D-xylose 5-hour urine excretion test and the 72-hour quantitative fecal fat test were measured at baseline and on Day 15. […] For the 72 h quantitative fecal fat test, patients were instructed to consume a diet containing 80-100 g fat per day during the collection. The fecal fat excretion was determined by a gravimetric method. […]
# [3] = All patients with full xylose data (N = 14)
# [4] = Subgroup with normal (>4 gm/5 hrs) Pre-stage Xylose (N = 10)
molecule,measurement,setting,value
B1,"PEP Effective (patients / patients with positive gluten challenge), urine xylose",[1]; [3],4/8
same,"PEP Effective, urine xylose",[1]; [3],50%
same,"PEP Effective (patients / patients with positive gluten challenge), urine xylose",[1]; [4],3/5
same,"PEP Effective, urine xylose",[1]; [4],60%
same,average Total Stage Symptom Score (sum of the 14 daily symptom scores),[2],23 (range 4 to 82)
